# Laboratory results reported in patent US20240270821A1, “GIP/GLP1/GCG TRI-RECEPTOR AGONISTS AND USES THEREOF” (priority 2023, published 2024).
# Columns and labels:
# Assay in all cases: cell-based or functional assay
# hGLP-1R = hGLP-1R (Homo sapiens, UniProt P43220)
# [1] = molecular target: T1, human GIP receptor (human) (UniProt P48546)
# T1 sequence (looked up): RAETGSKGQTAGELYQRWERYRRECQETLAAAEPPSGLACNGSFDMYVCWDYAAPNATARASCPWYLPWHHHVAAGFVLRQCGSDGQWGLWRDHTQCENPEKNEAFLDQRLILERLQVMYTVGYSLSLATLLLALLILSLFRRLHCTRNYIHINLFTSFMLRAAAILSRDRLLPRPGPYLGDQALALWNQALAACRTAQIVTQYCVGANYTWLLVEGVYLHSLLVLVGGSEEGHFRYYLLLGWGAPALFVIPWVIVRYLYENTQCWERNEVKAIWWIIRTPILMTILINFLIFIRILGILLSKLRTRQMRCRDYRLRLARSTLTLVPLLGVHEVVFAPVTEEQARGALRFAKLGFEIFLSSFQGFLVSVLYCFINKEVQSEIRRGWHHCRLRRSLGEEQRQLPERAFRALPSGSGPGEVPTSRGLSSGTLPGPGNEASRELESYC
# [2] = molecular target: human GLP-1R (SNAP-GLP-1R expressed in HEK293 cells) (human) (UniProt P43220)
# Chain of human GLP-1R (SNAP-GLP-1R expressed in HEK293 cells) (human) (P43220 24-463): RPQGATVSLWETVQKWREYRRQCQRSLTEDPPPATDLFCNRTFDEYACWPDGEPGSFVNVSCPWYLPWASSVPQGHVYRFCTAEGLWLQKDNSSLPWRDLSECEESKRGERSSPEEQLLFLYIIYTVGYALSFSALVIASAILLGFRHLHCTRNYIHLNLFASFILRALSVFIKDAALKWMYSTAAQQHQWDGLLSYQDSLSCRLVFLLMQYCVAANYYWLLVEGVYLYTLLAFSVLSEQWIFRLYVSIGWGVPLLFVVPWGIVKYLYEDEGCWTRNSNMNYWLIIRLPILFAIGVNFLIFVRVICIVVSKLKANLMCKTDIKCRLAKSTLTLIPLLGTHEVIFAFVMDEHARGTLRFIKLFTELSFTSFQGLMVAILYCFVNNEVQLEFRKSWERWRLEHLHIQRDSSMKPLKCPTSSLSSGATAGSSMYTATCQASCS
# [3] = molecular target: human glucagon receptor (human) (UniProt P47871)
# Chain of human glucagon receptor (human) (P47871 26-477): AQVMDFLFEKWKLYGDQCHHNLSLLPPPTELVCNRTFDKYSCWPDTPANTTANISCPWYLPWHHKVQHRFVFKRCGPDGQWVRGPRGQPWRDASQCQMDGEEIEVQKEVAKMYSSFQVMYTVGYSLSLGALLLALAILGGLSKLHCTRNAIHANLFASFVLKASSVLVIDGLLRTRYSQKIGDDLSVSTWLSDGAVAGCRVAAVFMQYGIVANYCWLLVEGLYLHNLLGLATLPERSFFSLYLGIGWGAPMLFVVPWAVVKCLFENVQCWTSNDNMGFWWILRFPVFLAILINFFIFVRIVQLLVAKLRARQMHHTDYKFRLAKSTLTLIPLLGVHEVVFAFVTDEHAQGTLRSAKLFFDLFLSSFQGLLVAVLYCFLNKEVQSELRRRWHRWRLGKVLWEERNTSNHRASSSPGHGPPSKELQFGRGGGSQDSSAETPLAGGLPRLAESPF
# Chain of hGLP-1R (P43220 24-463): as the sequence (P43220 24-463) above
Binder,"Relative cAMP EC50, nM (0.1% casein) (hGLP-1R)","cAMP Rel EC50, nM (1% HSA) (hGLP-1R)","Relative cAMP EC50, nM (0.1% casein) [1]","cAMP Rel EC50, nM (1% HSA) [1]",GLP1R Internalization EC50 [2],Internalization % TOP [2],"Relative cAMP EC50, nM (0.1% casein) [3]","cAMP Rel EC50, nM (1% HSA) [3]"
YXQGTFTSDFSRXLDKKAQXAFIEYLLEGGESSGAPPPSGS (synthetic construct; SITE 2: note = 2-Aminoisobutyric Acid; SITE 13: note = alpha-methyl-leucine; SITE 17: note = Lysine is chemically modified through conjugation of the epsilon-amino group of the Lysine side chain with (2-[2-(2-Amino-ethoxy)-ethoxy]-acetyl)-(gamma-Glu)-CO-(CH2) 16-CO2H; SITE 20: n) [Example 148],2.82 nM,870 nM,0.352 nM,74.2 nM,95.5 nM,37.4%,3.92 nM,1330 nM
YXQGTFTSDFSXXLDKKAQXAFIEYLLEGGPSSGAPPPGGT (synthetic construct; SITE 2: note = 2-Aminoisobutyric Acid; SITE 12: note = L-ornithine; SITE 13: note = alpha-methyl-leucine; SITE 17: note = Lysine is chemically modified through conjugation of the epsilon-amino group of the Lysine side chain with (2-[2-(2-Amino-ethoxy)-ethoxy]-acetyl)-(gamma-Glu)) [Example 158],2.49 nM,184 nM,0.245 nM,24.7 nM,104 nM,52.4%,3.72 nM,325 nM
YXQGTFTSDFSXXLDKKAQXAFIEYLLEGGXSSGAPPPGGS (synthetic construct; SITE 2: note = 2-Aminoisobutyric Acid; SITE 12: note = L-ornithine; SITE 13: note = alpha-methyl-leucine; SITE 17: note = Lysine is chemically modified through conjugation of the epsilon-amino group of the Lysine side chain with (2-[2-(2-Amino-ethoxy)-ethoxy]-acetyl)-(gamma-Glu)) [Example 163],6.5 nM,762 nM,0.376 nM,52 nM,143 nM,37.8%,5.6 nM,790 nM
YXQGTFTSDFSXXLDKKAQXAFIEYLLEGGHSSGAPPPGGS (synthetic construct; SITE 2: note = 2-Aminoisobutyric Acid; SITE 12: note = L-ornithine; SITE 13: note = alpha-methyl-leucine; SITE 17: note = Lysine is chemically modified through conjugation of the epsilon-amino group of the Lysine side chain with (2-[2-(2-Amino-ethoxy)-ethoxy]-acetyl)-(gamma-Glu)) [Example 162],4.72 nM,786 nM,0.222 nM,37.5 nM,48.8 nM,44.8%,4.72 nM,558 nM
YXQGTFTSDFSXXLDKKAQXAFIEYLLEAGPSSGEPPPSGS (synthetic construct; SITE 2: note = 2-Aminoisobutyric Acid; SITE 12: note = L-ornithine; SITE 13: note = alpha-methyl-leucine; SITE 17: note = Lysine is chemically modified through conjugation of the epsilon-amino group of the Lysine side chain with (2-[2-(2-Amino-ethoxy)-ethoxy]-acetyl)2-(gamma-Glu)) [Example 155],2.98 nM,503 nM,0.177 nM,18.9 nM,85.1 nM,54.5%,5.68 nM,1310 nM
YXQGTFTSDXSXXLDKKAQXAFIEYLLAGGPSSGEPPPSGS (synthetic construct; SITE 2: note = 2-Aminoisobutyric Acid; SITE 10: note = 3-(4-Pyridyl)-L-alanine; SITE 12: note = L-ornithine; SITE 13: note = alpha-methyl-leucine; SITE 17: note = Lysine is chemically modified through conjugation of the epsilon-amino group of the Lysine side chain with (2-[2-(2-) [Example 154],4.94 nM,569 nM,0.227 nM,29.7 nM,47.7 nM,65.9%,8.72 nM,1040 nM
YXQGTFTSDFSQXLDKKAQXAFIEYLLEXGPSSGAPPPSGS (synthetic construct; SITE 2: note = 2-Aminoisobutyric Acid; SITE 13: note = alpha-methyl-leucine; SITE 17: note = Lysine is chemically modified through conjugation of the epsilon-amino group of the Lysine side chain with (2-[2-(2-Amino-ethoxy)-ethoxy]-acetyl)-(gamma-Glu)-CO-(CH2) 16-CO2H; SITE 20: n) [Example 151],1.6 nM,384 nM,0.0784 nM,14.9 nM,77.8 nM,55%,3.5 nM,1420 nM
YXQGTFTSDFSXXLDKKAQXAFIEYLLEGGHSSGEPPPGGS (synthetic construct; SITE 2: note = 2-Aminoisobutyric Acid; SITE 12: note = L-ornithine; SITE 13: note = alpha-methyl-leucine; SITE 17: note = Lysine is chemically modified through conjugation of the epsilon-amino group of the Lysine side chain with (2-[2-(2-Amino-ethoxy)-ethoxy]-acetyl)-(gamma-Glu)) [Example 164],5.02 nM,962 nM,0.302 nM,59 nM,45.9 nM,46.5%,2.92 nM,411 nM
YXQGTFTSDFSXXLDKKAQXAFIEYLLEAGPSSGEPPPSGQ (ornithine at residue 12; synthetic construct; SITE 2: note = 2-Aminoisobutyric Acid; SITE 12: note = L-ornithine; SITE 13: note = alpha-methyl-leucine; SITE 17: note = Lysine is chemically modified through conjugation of the epsilon-amino group of the Lysine side chain with (2-[2-(2-Amino-ethoxy)-ethoxy]-acetyl)2-(gamma-Glu)) [Example 157],3.04 nM,496 nM,0.183 nM,22.2 nM,60.3 nM,53.3%,4.16 nM,838 nM
